B1: CD73.4-IgG2.5G1-KH (antibody)
heavy: QVQLVESGGGVVQPGRSLRLSCAASGFTFSNYGMHWVRQAPGKGLEWVAVILYDGSNKYYPDSVKGRFTISRDNSKNTLYLQMNSLRAEDTAVYYCARGGSSWYPDSFDIWGQGTMVTVSSASTKGPSVFPLAPSSRSTSESTAALGCLVKDYFPEPVTVSWNSGALTSGVHTFPAVLQSSGLYSLSSVVTVPSSNFGTQTYTCNVDHKPSNTKVDKTVERKCCVECPPCPAPPVAGPSVFLFPPKPKDTLMISRTPEVTCVVVDVSHEDPEVKFNWYVDGVEVHNAKTKPREEQYNSTYRVVSVLTVLHQDWLNGKEYKCKVSNKALPAPIEKTISKAKGQPREPQVYTLPPSREEMTKNQVSLTCLVKGFYPSDIAVEWESNGQPENNYKTTPPVLDSDGSFFLYSKLTVDKSRWQQGNVFSCSVMHEALHNHYTQKSLSLSPGK
light: not shown
notes: also called mAb-CD73.4-IgG2.5G1-KH; CD73.4-Vh-hHC-IgG2.5G1-KH
B2: CD73.4-IgG2.3G1-KH (antibody)
heavy: QVQLVESGGGVVQPGRSLRLSCAASGFTFSNYGMHWVRQAPGKGLEWVAVILYDGSNKYYPDSVKGRFTISRDNSKNTLYLQMNSLRAEDTAVYYCARGGSSWYPDSFDIWGQGTMVTVSSASTKGPSVFPLAPCSRSTSESTAALGCLVKDYFPEPVTVSWNSGALTSGVHTFPAVLQSSGLYSLSSVVTVPSSNFGTQTYTCNVDHKPSNTKVDKTVERKSCVECPPCPAPPVAGPSVFLFPPKPKDTLMISRTPEVTCVVVDVSHEDPEVKFNWYVDGVEVHNAKTKPREEQYNSTYRVVSVLTVLHQDWLNGKEYKCKVSNKALPAPIEKTISKAKGQPREPQVYTLPPSREEMTKNQVSLTCLVKGFYPSDIAVEWESNGQPENNYKTTPPVLDSDGSFFLYSKLTVDKSRWQQGNVFSCSVMHEALHNHYTQKSLSLSPGK
light: not shown
notes: also called mAb-CD73.4-IgG2.3G1-KH; CD73.4-Vh-hHC-IgG2.3G1-KH
B3: CD73.4-IgG2.5 (antibody)
heavy: QVQLVESGGGVVQPGRSLRLSCAASGFTFSNYGMHWVRQAPGKGLEWVAVILYDGSNKYYPDSVKGRFTISRDNSKNTLYLQMNSLRAEDTAVYYCARGGSSWYPDSFDIWGQGTMVTVSSASTKGPSVFPLAPSSRSTSESTAALGCLVKDYFPEPVTVSWNSGALTSGVHTFPAVLQSSGLYSLSSVVTVPSSNFGTQTYTCNVDHKPSNTKVDKTVERKCCVECPPCPAPPVAGPSVFLFPPKPKDTLMISRTPEVTCVVVDVSHEDPEVQFNWYVDGVEVHNAKTKPREEQFNSTFRVVSVLTVVHQDWLNGKEYKCKVSNKGLPAPIEKTISKTKGQPREPQVYTLPPSREEMTKNQVSLTCLVKGFYPSDIAVEWESNGQPENNYKTTPPMLDSDGSFFLYSKLTVDKSRWQQGNVFSCSVMHEALHNHYTQKSLSLSPGK
light: not shown
notes: also called mAb-CD73.4-IgG2.5; CD73.4-Vh-hHC-IgG2.5
B4: CD73.4-IgG2.5G1.1f-KH (antibody)
heavy: QVQLVESGGGVVQPGRSLRLSCAASGFTFSNYGMHWVRQAPGKGLEWVAVILYDGSNKYYPDSVKGRFTISRDNSKNTLYLQMNSLRAEDTAVYYCARGGSSWYPDSFDIWGQGTMVTVSSASTKGPSVFPLAPSSRSTSESTAALGCLVKDYFPEPVTVSWNSGALTSGVHTFPAVLQSSGLYSLSSVVTVPSSNFGTQTYTCNVDHKPSNTKVDKTVERKCCVECPPCPAPPVAGPSVFLFPPKPKDTLMISRTPEVTCVVVDVSHEDPEVKFNWYVDGVEVHNAKTKPREEQYNSTYRVVSVLTVLHQDWLNGKEYKCKVSNKALPSSIEKTISKAKGQPREPQVYTLPPSREEMTKNQVSLTCLVKGFYPSDIAVEWESNGQPENNYKTTPPVLDSDGSFFLYSKLTVDKSRWQQGNVFSCSVMHEALHNHYTQKSLSLSPGK
light: not shown
notes: also called mAb-CD73.4-IgG2.5G1.1f-KH; CD73.4-Vh-hHC-IgG2.5G1.1f-KH
B5: CD73.4-IgG2.3-plusGGG (antibody)
heavy: QVQLVESGGGVVQPGRSLRLSCAASGFTFSNYGMHWVRQAPGKGLEWVAVILYDGSNKYYPDSVKGRFTISRDNSKNTLYLQMNSLRAEDTAVYYCARGGSSWYPDSFDIWGQGTMVTVSSASTKGPSVFPLAPCSRSTSESTAALGCLVKDYFPEPVTVSWNSGALTSGVHTFPAVLQSSGLYSLSSVVTVPSSNFGTQTYTCNVDHKPSNTKVDKTVERKSCVEGGGCPPCPAPPVAGPSVFLFPPKPKDTLMISRTPEVTCVVVDVSHEDPEVQFNWYVDGVEVHNAKTKPREEQFNSTFRVVSVLTVVHQDWLNGKEYKCKVSNKGLPAPIEKTISKTKGQPREPQVYTLPPSREEMTKNQVSLTCLVKGFYPSDIAVEWESNGQPENNYKTTPPMLDSDGSFFLYSKLTVDKSRWQQGNVFSCSVMHEALHNHYTQKSLSLSPGK
light: not shown
notes: also called mAb-CD73.4-IgG2.3-plusGGG; CD73.4-Vh-hHC-IgG2.3-plusGGG
B6: CD73.4-IgG2.5-plusTHT (antibody)
heavy: QVQLVESGGGVVQPGRSLRLSCAASGFTFSNYGMHWVRQAPGKGLEWVAVILYDGSNKYYPDSVKGRFTISRDNSKNTLYLQMNSLRAEDTAVYYCARGGSSWYPDSFDIWGQGTMVTVSSASTKGPSVFPLAPSSRSTSESTAALGCLVKDYFPEPVTVSWNSGALTSGVHTFPAVLQSSGLYSLSSVVTVPSSNFGTQTYTCNVDHKPSNTKVDKTVERKCCVETHTCPPCPAPPVAGPSVFLFPPKPKDTLMISRTPEVTCVVVDVSHEDPEVQFNWYVDGVEVHNAKTKPREEQFNSTFRVVSVLTVVHQDWLNGKEYKCKVSNKGLPAPIEKTISKTKGQPREPQVYTLPPSREEMTKNQVSLTCLVKGFYPSDIAVEWESNGQPENNYKTTPPMLDSDGSFFLYSKLTVDKSRWQQGNVFSCSVMHEALHNHYTQKSLSLSPGK
light: not shown
notes: also called mAb-CD73.4-IgG2.5plusTHT/LC; CD73.4-Vh-hHC-IgG2.5plusTHT/LC

Biological target: T1, human CD73 on cells (human, UniProt P21589 27-549)
T1 sequence (looked up): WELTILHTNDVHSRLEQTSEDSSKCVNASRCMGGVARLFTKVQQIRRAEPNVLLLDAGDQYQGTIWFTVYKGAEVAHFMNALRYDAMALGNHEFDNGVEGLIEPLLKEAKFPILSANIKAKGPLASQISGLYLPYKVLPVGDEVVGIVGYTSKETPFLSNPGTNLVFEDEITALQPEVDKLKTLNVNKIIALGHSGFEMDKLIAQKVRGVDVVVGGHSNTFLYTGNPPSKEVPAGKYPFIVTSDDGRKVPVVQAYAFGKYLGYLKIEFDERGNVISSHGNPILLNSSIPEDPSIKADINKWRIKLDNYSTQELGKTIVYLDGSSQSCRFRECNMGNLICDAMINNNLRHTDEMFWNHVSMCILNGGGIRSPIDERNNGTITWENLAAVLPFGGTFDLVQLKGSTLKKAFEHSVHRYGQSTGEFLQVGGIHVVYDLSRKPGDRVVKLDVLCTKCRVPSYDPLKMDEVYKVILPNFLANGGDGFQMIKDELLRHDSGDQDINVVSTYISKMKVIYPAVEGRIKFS
Experiment: cell-based or functional assay

Row | Binder | internalization T1/2, Calu6 | internalization T1/2, NCI-H292 | internalization Ymax, Calu6 | internalization Ymax, NCI-H292
1 | B1 | 17 min | 15.4 min | 76% | 90.8%
2 | B2 | 23.8 min | 16.8 min | 81.6% | 91.6%
3 | B3 | 20.9 min | 18.3 min | 79% | 89.6%
4 | B4 | 21.2 min | 18 min | 79.6% | 90.9%
5 | B5 | 20.1 min | 16.3 min | 81.7% | 91.6%
6 | B6 | 17.2 min | 15.4 min | 80.2% | 89.6%

From patent US20240141059A1 (Bristol-Myers Squibb, published 2024)
